The record followed here is patent US20210230280A1 (EXIRIS S R L, published 2021).

“And” between values parts separate entries of the source, which are not always exact repeats. Identical values can stand only once.

As usually defined, the IC50 is the concentration that inhibits the measured activity by half. Read a low IC50 as greater potency.

One assay has as its target T1, murine FGFR4 (mouse, UniProt Q03142 17-799).
T1 construct: whole, on cells; full-length, on transfected BOSC23 cells; also called murine receptor; murine FL FGFR4
T1 sequence (looked up): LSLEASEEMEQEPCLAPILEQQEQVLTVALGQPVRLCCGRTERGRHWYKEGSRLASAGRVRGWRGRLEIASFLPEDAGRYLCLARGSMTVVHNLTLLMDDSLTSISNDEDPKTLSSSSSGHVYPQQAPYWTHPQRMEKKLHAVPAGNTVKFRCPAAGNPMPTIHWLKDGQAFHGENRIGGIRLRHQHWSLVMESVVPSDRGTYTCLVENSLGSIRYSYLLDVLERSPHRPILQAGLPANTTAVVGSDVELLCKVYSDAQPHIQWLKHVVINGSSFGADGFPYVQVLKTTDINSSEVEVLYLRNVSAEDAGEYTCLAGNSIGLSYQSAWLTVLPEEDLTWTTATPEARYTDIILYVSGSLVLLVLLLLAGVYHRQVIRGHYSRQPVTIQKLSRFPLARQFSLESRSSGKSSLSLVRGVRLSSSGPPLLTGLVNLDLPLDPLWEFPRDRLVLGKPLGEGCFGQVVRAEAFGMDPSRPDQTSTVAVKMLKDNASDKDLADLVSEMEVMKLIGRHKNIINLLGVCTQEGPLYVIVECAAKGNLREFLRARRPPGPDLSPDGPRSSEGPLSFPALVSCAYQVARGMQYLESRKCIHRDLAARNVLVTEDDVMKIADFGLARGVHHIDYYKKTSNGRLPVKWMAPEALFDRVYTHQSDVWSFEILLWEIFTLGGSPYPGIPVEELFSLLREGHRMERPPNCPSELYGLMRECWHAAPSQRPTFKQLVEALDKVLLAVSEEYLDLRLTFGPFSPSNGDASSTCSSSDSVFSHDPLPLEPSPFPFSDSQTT
The assay can be described thus: told with the epitope alignment.

The target of assay [1] is T2, human chimeric receptor FGFR3-Fc (R&D Systems) (human, UniProt P22607 23-375).
T2 construct: extracellular domain; not shown: human Fc
T2 sequence (looked up): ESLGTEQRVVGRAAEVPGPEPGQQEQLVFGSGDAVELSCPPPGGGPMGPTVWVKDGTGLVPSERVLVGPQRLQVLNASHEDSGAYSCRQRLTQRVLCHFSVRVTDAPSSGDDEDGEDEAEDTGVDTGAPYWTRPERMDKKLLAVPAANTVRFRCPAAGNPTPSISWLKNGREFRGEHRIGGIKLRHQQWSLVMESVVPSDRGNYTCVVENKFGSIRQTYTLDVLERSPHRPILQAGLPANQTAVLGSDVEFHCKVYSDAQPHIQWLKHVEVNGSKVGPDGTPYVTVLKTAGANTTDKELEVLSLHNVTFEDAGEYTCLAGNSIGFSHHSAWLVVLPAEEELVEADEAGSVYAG
In words: solid phase receptor binding assay.

In assay [2] the target is T3, human chimeric receptor FGFR4-Fc (R&D Systems) (human, UniProt P22455 22-369).
T3 construct: extracellular domain; bought; also called hFGFR4-Fc; not shown: human IgG Fc
T3 sequence (looked up): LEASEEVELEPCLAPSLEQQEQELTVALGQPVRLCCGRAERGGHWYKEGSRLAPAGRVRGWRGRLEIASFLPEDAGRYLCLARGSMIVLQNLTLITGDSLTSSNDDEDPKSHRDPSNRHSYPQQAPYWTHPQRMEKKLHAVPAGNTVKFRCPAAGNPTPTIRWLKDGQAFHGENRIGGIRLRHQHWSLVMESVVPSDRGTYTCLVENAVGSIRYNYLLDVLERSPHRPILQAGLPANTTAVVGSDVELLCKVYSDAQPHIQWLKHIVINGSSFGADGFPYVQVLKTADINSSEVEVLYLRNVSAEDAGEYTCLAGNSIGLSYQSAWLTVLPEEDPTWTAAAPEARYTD
The assay can be described thus: competition ELISA, FGF19 binding to FGFR4-Fc. Background: ELISA stands for enzyme-linked immunosorbent assay.

B1: ch3B6 (antibody, human IgG1, V domains shown)
VH: EVQLVESGGGLVQPGRSLKLSCAASGFTFSNYYMAWVRQAPKKGLEWVATINPSGTRTYYPDSVKGRFTLSRDSAKSSLYLQMNSLKSEDTATFYCARLYNNYAFDYWGQGVMVTVSS
VL: DVQMTQSPALAVSPGERVSISCRASESVSTLMHWYQQKPGQQPKLLIYGTSNLESGVPARFSGSGSGTDFTLNIDPVEADDTATYFCQQSWNDPPTFGGGTKLELK
notes: human-rat chimeric antibody, human IgG1 constant regions and human kappa constant region; also called chimeric 3B6
In the case of B1, the binding result with murine FGFR4 is “binds”; in assay [1], “no binding (tested: 9 ug/mL)”.

B2: Hu3B6a (antibody, human IgG1, V domains shown)
VH: EVQLVESGGGLVQPGGSLRLSCAASGFTFSNYYMSWVRQAPGKGLEWVATINPSGTRTYYPDSVKGRFTISRDNAKNSLYLQMNSLRAEDTAVYYCARLYNNYAFDYWGQGTLVTVSS
VL: DIQMTQSPSSLSASVGDRVTITCRASESISTLLHWYQQKPGKAPKLLIYGTSNLESGVPSRFSGSGSGTDFTLTISSLQPEDFATYYCQQSWNDPPTFGGGTKVEIK
Turning to B2, in assay [2], the 50% inhibitory concentration (IC50) was 0.13 µg/mL and 0.87 nM.

B3: Hu3B6b (antibody, human IgG1, V domains shown)
VH: EVQLVESGGGLVQPGGSLRLSCAASGFTFSNYYMSWVRQAPGKGLEWVANINPSGTRTYYPDSVKGRFTISRDNAKNSLYLQMNSLRAEDTAVYYCARLYNNYAFDYWGQGTLVTVSS
VL: DIQMTQSPSSLSASVGDRVTITCRASESISTLLHWYQQKPGKAPKLLIYGTSNLESGVPSRFSGSGSGTDFTLTISSLQPEDFATYYCQQSWNDPPTFGGGTKVEIK
With B3, the IC50 in assay [2] is 0.4 µg/mL and 2.7 nM.

B4: Hu3B6d (antibody, human IgG1, V domains shown)
VH: EVQLVESGGGLVQPGGSLRLSCAASGFTFSNYYMSWVRQAPGKGLEWVATINPSGTRTYYPDSVKGRFTISRDNAKNSLYLQMNSLRAEDTAVYYCARLYNNYAFDYWGQGTLVTVSS
VL: DIQMTQSPSSLSASVGDRVTITCRASESVSTLMHWYQQKPGKAPKLLIYGTSNLESGVPSRFSGSGSGTDFTLTISSLQPEDFATYYCQQSWNDPPTFGGGTKVEIK
Turning to B4, the 50% inhibitory concentration (IC50) in assay [2] was 0.03 µg/mL and 0.2 nM.

B5: Hu3B6c (antibody, human IgG1, V domains shown)
VH: EVQLVESGGGLVQPGGSLRLSCAASGFTFSNYYMSWVRQAPGKGLEWVATINPSGTRTYYPDSVKGRFTISRDSAKSSLYLQMNSLRAEDTAVYYCARLYNNYAFDYWGQGTLVTVSS
VL: DIQMTQSPSSLSASVGDRVTITCRASESISTLLHWYQQKPGKAPKLLIYGTSNLESGVPSRFSGSGSGTDFTLTISSLQPEDFATYYCQQSWNDPPTFGGGTKVEIK
For the molecule B5, the half-maximal inhibitory concentration (IC50) in assay [2] was 0.07 µg/mL and 0.47 nM.

B6: Hu3B6e (antibody, human IgG1, V domains shown)
VH: EVQLVESGGGLVQPGGSLRLSCAASGFTFSNYYMSWVRQAPGKGLEWVANINPSGTRTYYPDSVKGRFTISRDNAKNSLYLQMNSLRAEDTAVYYCARLYNNYAFDYWGQGTLVTVSS
VL: DIQMTQSPSSLSASVGDRVTITCRASESVSTLMHWYQQKPGKAPKLLIYGTSNLESGVPSRFSGSGSGTDFTLTISSLQPEDFATYYCQQSWNDPPTFGGGTKVEIK
Turning to B6, the IC50 in assay [2] was 0.16 µg/mL and 1 nM.

B7: Hu3B6f (antibody, human IgG1, V domains shown)
VH: EVQLVESGGGLVQPGGSLRLSCAASGFTFSNYYMSWVRQAPGKGLEWVATINPSGTRTYYPDSVKGRFTISRDSAKSSLYLQMNSLRAEDTAVYYCARLYNNYAFDYWGQGTLVTVSS
VL: DIQMTQSPSSLSASVGDRVTITCRASESVSTLMHWYQQKPGKAPKLLIYGTSNLESGVPSRFSGSGSGTDFTLTISSLQPEDFATYYCQQSWNDPPTFGGGTKVEIK
For B7, the half-maximal inhibitory concentration (IC50) in assay [2] was 0.09 µg/mL and 0.6 nM.
